Results on one substance are retold here after patent US20220025071A1.

In general, Kd refers to the constant that tells how readily two partners part at equilibrium.

One assay concerns the target CD20 Lipoparticles (UniProt P11836).
In assay [1] the target is Recombinant human Fc gamma receptor I, CD64 (human) (UniProt P12314).
Assay [2] concerns the target Recombinant human Fc gamma receptor IIa, CD32a 131H (human) (UniProt P12318).
In assay [3] the target is Recombinant human Fc gamma receptor IIb/c, CD32b/c (human) (UniProt P31994).
Sequence of Recombinant human Fc gamma receptor IIb/c, CD32b/c (human) (P31994 46-217): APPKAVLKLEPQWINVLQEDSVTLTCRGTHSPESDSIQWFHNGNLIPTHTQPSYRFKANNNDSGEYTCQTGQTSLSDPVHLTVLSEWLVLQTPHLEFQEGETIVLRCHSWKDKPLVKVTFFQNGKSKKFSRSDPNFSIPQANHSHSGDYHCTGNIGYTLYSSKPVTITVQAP
Assay [4] addresses Recombinant human Fc gamma receptor IIIb, CD16b (human) (UniProt O75015).
Assay [5] deals with Recombinant human Fc gamma receptor IIIa, CD16a 158V (human) (UniProt P08637).
Sequence of Recombinant human Fc gamma receptor IIIa, CD16a 158V (human) (P08637 17-208 F176V limits assumed): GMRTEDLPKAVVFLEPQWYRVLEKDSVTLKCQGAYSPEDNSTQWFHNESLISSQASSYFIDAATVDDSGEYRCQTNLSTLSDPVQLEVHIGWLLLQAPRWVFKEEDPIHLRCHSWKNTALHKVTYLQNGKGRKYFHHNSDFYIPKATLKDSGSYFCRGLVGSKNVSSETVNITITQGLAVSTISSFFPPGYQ
The target in assay [6] is Recombinant human Fc gamma receptor IIa, CD32a 131R (human) (UniProt P12318).
Sequence of Recombinant human Fc gamma receptor IIa, CD32a 131R (human) (P12318 36-218 H167R): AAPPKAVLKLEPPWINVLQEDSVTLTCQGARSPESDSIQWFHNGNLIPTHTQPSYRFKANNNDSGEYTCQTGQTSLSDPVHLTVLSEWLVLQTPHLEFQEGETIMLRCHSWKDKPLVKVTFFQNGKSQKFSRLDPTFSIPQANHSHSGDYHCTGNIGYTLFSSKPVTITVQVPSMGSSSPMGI

Sequence of CD20 Lipoparticles (P11836 whole entry): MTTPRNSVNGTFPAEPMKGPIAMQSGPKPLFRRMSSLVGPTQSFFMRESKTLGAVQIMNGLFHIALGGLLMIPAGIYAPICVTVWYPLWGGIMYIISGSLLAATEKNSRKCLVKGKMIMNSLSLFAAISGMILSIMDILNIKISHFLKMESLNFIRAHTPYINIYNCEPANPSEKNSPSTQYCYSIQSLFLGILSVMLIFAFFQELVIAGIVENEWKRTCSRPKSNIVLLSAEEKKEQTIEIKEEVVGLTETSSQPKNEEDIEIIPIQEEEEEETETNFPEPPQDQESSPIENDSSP
Sequence of Recombinant human Fc gamma receptor IIa, CD32a 131H (human) (P12318 36-218): as the sequence (P12318 36-218 H167R) above, with R132H counted along it
Sequence of Recombinant human Fc gamma receptor IIIb, CD16b (human) (O75015 17-200 limits assumed): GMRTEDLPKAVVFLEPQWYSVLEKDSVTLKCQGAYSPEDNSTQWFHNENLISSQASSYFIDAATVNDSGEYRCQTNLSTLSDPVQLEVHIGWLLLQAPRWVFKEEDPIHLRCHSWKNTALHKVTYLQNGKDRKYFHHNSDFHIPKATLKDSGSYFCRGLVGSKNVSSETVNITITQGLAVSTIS
Sequence of Recombinant human Fc gamma receptor I, CD64 (human) (P12314 16-288 limits assumed): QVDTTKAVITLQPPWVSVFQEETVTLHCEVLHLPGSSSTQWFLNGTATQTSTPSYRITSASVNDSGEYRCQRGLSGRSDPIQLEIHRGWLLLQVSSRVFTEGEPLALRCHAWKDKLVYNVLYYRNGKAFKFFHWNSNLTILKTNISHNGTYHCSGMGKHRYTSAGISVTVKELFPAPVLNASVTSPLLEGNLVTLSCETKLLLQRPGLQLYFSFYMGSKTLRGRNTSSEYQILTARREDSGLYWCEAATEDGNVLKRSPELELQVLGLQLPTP

Regarding Rituxan (antibody), the equilibrium dissociation constant (Kd) with CD20 Lipoparticles is under 0.001 nM; in assay [1], 52.8 nM; in assay [2], 892 nM; in assay [3], 1520 nM; in assay [4] it was 1530 nM; in assay [5] it was 715 nM. In addition, in assay [6], the Kd turned out to be 1250 nM.
